Assay [1] has as its target αvβ3 and αvβ5 integrins on A375S2 human melanoma cells (human) (UniProt P06756). Description: cell-based or functional assay.
For assay [2], the target named is αVβ3 and αVβ5 integrins on M21 human melanoma cells (human) (UniProt P06756). Nature of the assay: 125-I antibody saturation binding to M21 cells, n = 8.
In assay [3] the target is αvβ3 and αvβ5 integrins on A375S2 human melanoma cells (human) (UniProt P06756). Description: 125-I antibody saturation binding to A375S2 cells, n = 7.
Sequence of αvβ3 and αvβ5 integrins on A375S2 human melanoma cells (human) (P06756 31-1048 A375S, chain 1 of 3): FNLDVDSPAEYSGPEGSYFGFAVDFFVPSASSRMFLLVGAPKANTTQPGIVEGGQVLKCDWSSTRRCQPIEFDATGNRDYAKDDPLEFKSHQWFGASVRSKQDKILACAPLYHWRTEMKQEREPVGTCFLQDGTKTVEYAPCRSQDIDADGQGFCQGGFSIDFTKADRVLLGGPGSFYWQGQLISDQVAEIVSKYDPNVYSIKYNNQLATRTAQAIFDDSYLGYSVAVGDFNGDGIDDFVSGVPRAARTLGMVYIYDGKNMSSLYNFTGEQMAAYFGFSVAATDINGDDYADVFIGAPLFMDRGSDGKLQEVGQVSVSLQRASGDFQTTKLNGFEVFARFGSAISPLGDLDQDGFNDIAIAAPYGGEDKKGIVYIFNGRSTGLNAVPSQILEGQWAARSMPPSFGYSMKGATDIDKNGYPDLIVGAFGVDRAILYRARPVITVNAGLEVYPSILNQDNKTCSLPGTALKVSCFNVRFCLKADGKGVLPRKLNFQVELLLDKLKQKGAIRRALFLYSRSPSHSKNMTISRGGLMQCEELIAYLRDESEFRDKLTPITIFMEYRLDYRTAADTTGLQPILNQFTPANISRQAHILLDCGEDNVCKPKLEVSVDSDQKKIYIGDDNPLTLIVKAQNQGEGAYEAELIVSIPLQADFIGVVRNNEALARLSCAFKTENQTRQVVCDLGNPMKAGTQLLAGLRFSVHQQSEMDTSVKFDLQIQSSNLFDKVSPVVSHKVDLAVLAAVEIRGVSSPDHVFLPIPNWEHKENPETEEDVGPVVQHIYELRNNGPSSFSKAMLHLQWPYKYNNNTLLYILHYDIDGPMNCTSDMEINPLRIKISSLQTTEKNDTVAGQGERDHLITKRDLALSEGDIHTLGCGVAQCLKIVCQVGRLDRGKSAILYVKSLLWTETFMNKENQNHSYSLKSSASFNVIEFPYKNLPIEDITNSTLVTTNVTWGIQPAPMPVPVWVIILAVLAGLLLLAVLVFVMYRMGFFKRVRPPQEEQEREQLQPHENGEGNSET
Sequence of αvβ3 and αvβ5 integrins on A375S2 human melanoma cells (human) (P05106 27-788, chain 2 of 3, further chain): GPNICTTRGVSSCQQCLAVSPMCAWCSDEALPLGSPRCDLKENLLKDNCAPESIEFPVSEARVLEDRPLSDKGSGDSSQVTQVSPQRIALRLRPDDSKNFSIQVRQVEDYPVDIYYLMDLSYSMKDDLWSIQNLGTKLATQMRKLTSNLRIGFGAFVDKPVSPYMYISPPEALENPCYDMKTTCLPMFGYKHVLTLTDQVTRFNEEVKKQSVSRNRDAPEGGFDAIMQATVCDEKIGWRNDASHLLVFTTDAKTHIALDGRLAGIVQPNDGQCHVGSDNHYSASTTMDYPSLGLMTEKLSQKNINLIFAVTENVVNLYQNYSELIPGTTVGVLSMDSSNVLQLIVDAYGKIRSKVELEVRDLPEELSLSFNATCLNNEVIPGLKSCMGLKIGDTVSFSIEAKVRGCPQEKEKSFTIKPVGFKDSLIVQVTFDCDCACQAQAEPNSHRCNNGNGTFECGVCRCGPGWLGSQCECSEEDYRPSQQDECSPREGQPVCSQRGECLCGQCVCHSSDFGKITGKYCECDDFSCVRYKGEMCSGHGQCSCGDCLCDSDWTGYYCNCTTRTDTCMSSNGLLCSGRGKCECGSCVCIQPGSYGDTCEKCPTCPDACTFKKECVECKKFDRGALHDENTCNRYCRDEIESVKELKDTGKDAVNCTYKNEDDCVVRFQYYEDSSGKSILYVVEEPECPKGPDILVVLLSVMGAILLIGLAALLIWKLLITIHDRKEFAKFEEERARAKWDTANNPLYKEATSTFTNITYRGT
Sequence of αvβ3 and αvβ5 integrins on A375S2 human melanoma cells (human) (P18084 24-799, chain 3 of 3, further chain): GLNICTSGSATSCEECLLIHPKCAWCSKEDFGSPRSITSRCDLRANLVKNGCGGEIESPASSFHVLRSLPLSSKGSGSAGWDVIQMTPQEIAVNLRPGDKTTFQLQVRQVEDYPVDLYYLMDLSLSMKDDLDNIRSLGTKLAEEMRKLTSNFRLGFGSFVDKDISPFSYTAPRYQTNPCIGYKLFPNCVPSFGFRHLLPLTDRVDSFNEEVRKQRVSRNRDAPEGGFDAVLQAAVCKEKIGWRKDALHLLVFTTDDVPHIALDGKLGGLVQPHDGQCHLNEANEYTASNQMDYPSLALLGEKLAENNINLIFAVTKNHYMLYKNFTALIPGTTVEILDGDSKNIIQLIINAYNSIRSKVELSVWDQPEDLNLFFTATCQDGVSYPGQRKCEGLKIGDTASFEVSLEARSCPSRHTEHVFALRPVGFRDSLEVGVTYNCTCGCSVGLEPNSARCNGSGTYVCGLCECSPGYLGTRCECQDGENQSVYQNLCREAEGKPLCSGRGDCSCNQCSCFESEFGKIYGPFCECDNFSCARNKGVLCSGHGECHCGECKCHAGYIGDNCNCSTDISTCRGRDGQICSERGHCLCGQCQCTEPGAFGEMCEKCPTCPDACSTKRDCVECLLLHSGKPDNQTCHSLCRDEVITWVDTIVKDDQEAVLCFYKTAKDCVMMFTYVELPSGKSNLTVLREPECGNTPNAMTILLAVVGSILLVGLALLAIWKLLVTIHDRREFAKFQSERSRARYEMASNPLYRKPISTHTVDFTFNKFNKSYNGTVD
Assay [4] has the same target. Description: radiolabelled antibody binding to A375S2 cells, n = 2.
The target of assay [5] is αVβ3 and αVβ5 integrins on M21 human melanoma cells (human) (UniProt P06756). Nature of the assay: radiolabelled antibody binding to M21 cells, n = 2.
The target of assay [6] is αvβ5 integrin on HT-29 human colon carcinoma cells (human) (UniProt P06756). Nature of the assay: radiolabelled antibody binding to HT-29 cells, n = 1.
Sequence of αvβ5 integrin on HT-29 human colon carcinoma cells (human) (P06756 31-1048, chain 1 of 2): as the sequence (P06756 31-1048 A375S, chain 1 of 3) above, with S345A counted along it
Sequence of αvβ5 integrin on HT-29 human colon carcinoma cells (human) (P18084 24-799, chain 2 of 2, further chain): as the sequence (P18084 24-799, chain 3 of 3, further chain) above
The target in assay [7] is αvβ3 and αvβ5 integrins on A375S2 human melanoma cells (human) (UniProt P06756). Nature of the assay: radiolabelled antibody binding to A375S2 cells, n = 4.
Assay [8] addresses αVβ3 and αVβ5 integrins on M21 human melanoma cells (human) (UniProt P06756). Description: 125-I Fab saturation binding to M21 cells, n = 7.
Assay [9] has as its target αvβ3 and αvβ5 integrins on A375S2 human melanoma cells (human) (UniProt P06756). Nature of the assay: 125-I Fab saturation binding to A375S2 cells, n = 6.

Consider CNTO 95 (antibody), for which, in [1], the A375S.2 cell adhesion to fibrin, percent of adhesion without antibody, antibody at 10 µg/ml was 43.3%; the A375S.2 cell adhesion to fibrinogen, percent of adhesion without antibody, antibody at 10 µg/ml was found to be 11.4%; the A375S.2 cell adhesion to gelatin, percent of adhesion without antibody, antibody at 10 µg/ml amounted to 23.2%; the A375S.2 cell adhesion to vitronectin, percent of adhesion without antibody, antibody at 10 µg/ml worked out at 1.4%. Further, in assay [2], the Receptors per cell (receptors per cell) came out at 200000. Further, the Receptors per cell (receptors per cell) in assay [3] was 120000.
For the substance LM609 (antibody), in assay [4], the Receptors per cell (receptors per cell) was 300000.
As for P1F6 (antibody), the Receptors per cell (receptors per cell) was determined as 44000 in [5], 73000 in assay [6] and 70000 in assay [7].
On to ReoPro (c7E3 Fab), for which the Receptors per cell (receptors per cell) was found to be 660000 in [8] and 370000 in assay [9].

Values taken from patent US20090191117A1.
